Data taken from US20200087367A1 (ACCELERON PHARMA, published 2020).
Read-outs that look alike come from different tables or passages of the source.

T1: hENG(26-437)-hFc (human, UniProt P17813 26-437)
T1 construct: HEK 293, purified; not shown: linker and human IgG1 Fc domain
T1 sequence: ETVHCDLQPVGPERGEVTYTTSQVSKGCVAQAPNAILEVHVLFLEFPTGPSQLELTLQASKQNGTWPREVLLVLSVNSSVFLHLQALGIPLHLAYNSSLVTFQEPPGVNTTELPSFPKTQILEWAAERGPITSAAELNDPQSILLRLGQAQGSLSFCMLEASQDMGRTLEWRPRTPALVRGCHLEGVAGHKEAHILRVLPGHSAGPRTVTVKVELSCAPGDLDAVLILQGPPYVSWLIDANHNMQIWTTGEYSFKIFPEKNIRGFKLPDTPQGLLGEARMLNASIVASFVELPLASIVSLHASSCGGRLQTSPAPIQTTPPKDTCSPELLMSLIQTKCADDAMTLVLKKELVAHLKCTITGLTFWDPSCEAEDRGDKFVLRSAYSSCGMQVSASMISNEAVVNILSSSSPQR

T2: BMP10pro(22-312)-mFc (human, UniProt O95393 22-312)
T2 construct: also called mouse Fc equivalent construct; not shown: optional linker and mouse immunoglobulin G1 Fc domain
T2 sequence: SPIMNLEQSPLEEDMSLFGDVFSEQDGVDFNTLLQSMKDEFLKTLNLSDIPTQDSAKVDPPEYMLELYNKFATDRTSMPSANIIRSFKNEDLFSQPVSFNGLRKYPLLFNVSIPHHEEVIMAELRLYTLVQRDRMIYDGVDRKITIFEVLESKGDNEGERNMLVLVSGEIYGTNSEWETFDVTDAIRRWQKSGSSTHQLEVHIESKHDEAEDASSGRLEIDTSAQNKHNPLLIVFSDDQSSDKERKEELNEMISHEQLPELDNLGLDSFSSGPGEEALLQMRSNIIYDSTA

T3: BMP10pro(22-315)-mFc (human, UniProt O95393 22-315)
T3 construct: also called mouse Fc equivalent construct; not shown: optional linker and mouse immunoglobulin G1 Fc domain
T3 sequence: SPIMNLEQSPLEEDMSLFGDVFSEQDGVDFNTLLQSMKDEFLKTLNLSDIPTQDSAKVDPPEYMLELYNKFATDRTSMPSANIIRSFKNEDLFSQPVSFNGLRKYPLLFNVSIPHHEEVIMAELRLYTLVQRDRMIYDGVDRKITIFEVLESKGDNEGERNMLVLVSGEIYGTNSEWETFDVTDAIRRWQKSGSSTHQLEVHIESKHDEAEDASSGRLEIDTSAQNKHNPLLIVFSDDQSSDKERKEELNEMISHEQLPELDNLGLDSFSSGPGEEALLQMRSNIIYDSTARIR

T4: ActRIIB-mFc (human, UniProt Q13705 20-134)
T4 sequence: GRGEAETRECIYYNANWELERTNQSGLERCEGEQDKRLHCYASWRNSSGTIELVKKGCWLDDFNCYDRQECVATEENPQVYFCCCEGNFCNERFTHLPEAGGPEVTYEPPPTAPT

T5: hENG(129-346)-hFc (human, UniProt P17813 129-346)
T5 construct: HEK 293, purified; not shown: linker and human IgG1 Fc domain
T5 sequence: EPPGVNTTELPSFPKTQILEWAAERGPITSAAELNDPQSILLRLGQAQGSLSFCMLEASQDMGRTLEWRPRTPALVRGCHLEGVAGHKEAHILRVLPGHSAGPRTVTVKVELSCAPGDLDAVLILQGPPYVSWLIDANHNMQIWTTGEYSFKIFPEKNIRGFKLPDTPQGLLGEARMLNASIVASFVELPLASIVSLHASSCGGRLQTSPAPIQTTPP

T6: hENG(458-581)-hFc (human, UniProt P17813 458-581)
T6 construct: Expressed in COS cells, not purified; not shown: linker and human IgG1 Fc domain
T6 sequence: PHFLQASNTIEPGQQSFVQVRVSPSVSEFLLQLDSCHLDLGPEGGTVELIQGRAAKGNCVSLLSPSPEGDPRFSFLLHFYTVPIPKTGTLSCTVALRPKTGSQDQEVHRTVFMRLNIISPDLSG

T7: hENG(458-586)-hFc (human, UniProt P17813 458-586)
T7 construct: Expressed in COS cells, not purified; not shown: linker and human IgG1 Fc domain
T7 sequence: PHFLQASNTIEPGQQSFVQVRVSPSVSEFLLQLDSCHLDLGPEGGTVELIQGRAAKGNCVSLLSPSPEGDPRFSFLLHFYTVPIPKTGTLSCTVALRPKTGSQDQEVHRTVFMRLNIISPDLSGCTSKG

T8: hENG(26-329)-hFc (human, UniProt P17813 26-329)
T8 construct: HEK 293, purified; not shown: linker and human IgG1 Fc domain
T8 sequence: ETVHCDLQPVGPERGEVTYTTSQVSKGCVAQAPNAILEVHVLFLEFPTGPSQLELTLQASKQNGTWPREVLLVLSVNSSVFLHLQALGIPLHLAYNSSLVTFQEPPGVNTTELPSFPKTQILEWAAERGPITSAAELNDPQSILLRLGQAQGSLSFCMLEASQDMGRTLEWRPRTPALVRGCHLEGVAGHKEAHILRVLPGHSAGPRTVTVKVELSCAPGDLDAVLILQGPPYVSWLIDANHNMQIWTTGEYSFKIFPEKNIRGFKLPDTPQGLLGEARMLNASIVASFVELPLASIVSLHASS


How the values were obtained:
hENG(26-437)-hFc [1] = target: T1, hENG(26-437)-hFc; test: SPR kinetics; HEK293-cell-derived protein
BMP10pro(22-312)-mFc = target: T2, BMP10pro(22-312)-mFc; test: SPR (Biacore), BMP10pro-Fc captured by anti-Fc antibody, ligand injected
Method: (§1) The BMP10pro-Fc proteins were separately was captured onto the system using an anti-Fc antibody, and ligands were injected and allowed to flow over the captured receptor protein. […] The mouse Fc equivalent constructs behaved similarly. […] The affinity of BMP10pro(22-315)-hFc for BMP3b was not assessed.

BMP10pro(22-315)-mFc = target: T3, BMP10pro(22-315)-mFc; test: as above
Method: as §1

ActRIIA-mFc = target: T9, ActRIIA-mFc (human, UniProt P27037 21-135); test: SPR (Biacore), ligand amine-coupled to chip, Fc fusion injected
T9 construct: not shown: linker and mouse Fc domain
T9 sequence (P27037 21-135): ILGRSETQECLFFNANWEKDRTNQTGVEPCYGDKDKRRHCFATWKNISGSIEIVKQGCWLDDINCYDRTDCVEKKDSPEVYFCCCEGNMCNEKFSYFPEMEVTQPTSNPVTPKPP

ActRIIB-mFc = target: T4, ActRIIB-mFc; test: SPR (Biacore), ligand amine-coupled to CM5 chip, Fc fusion injected
hENG(26-437)-hFc [2] = target: T1, hENG(26-437)-hFc; test: SPR kinetics; HEK293-cell-derived protein; remark: listed apart in the source
hENG(129-346)-hFc = target: T5, hENG(129-346)-hFc; test: SPR, captured hENG-hFc, soluble BMP10; '-' = Binding undetectable
Method: (§2) SPR methodology was used to screen these hENG-hFc protein variants for high-affinity binding to human BMP9 and BMP10. In these experiments, captured hENG-hFc proteins were exposed to soluble BMP9 or BMP10 at 100 nM each.

hENG(458-581)-hFc = target: T6, hENG(458-581)-hFc; test: as above
Method: as §2

hENG(458-586)-hFc = target: T7, hENG(458-586)-hFc; test: as above
Method: as §2

hENG(26-329)-hFc = target: T8, hENG(26-329)-hFc; test: as above
Method: as §2

| Kd (hENG(26-437)-hFc [1]) | koff (hENG(26-437)-hFc [1]) | binding result (BMP10pro(22-312)-mFc) | binding result (BMP10pro(22-315)-mFc) | binding result (ActRIIA-mFc) | binding result (ActRIIB-mFc) | Kd (hENG(26-437)-hFc [2]) | koff (hENG(26-437)-hFc [2]) | binding result (hENG(129-346)-hFc) | binding result (hENG(458-581)-hFc) | binding result (hENG(458-586)-hFc) | binding result (hENG(26-329)-hFc) | Binder |
| --- | --- | --- | --- | --- | --- | --- | --- | --- | --- | --- | --- | --- |
| 0.019 nM | 0.0014 s⁻¹ | binds | binds | binds | binds |  |  |  |  |  |  | BMP9 (ligand, human, UniProt Q9UK05 320-429, looked up, also called hBMP-9; hBMP9) SAGAGSHCQKTSLRVNFEDIGWDSWIIAPKEYEAYECKGGCFFPLADDVTPTKHAIVQTLVHLKFPTKVGKACCVPTKLSPISVLYKDDMGVPTLKYHYEGMSVAECGCR |
|  |  | binds | binds | binds | binds | 0.13 nM | 0.0028 s⁻¹ | no binding (tested: 100 nM) | no binding (tested: 100 nM) | no binding (tested: 100 nM) | no binding (tested: 100 nM) | BMP10 (ligand, also called hBMP-10; hBMP10) NAKGNYCKRTPLYIDFKEIGWDSWIIAPPGYEAYECRGVCNYPLAEHLTPTKHAIIQALVHLKNSQKASKACCVPTKLEPISILYLDKGVVTYKFKYEGMAVSECGCR |
